Numbering of substitutions follows the chain as printed. Numbers in names are those of the source.
T1: mouse tenascin-C rCd4-His-FBG (rat; mouse, UniProt P05540 207-392, limits assumed)
T1 construct: domain: domains 3 and 4; C-terminal FBG fusion; biotinylated in the ELISA screen; also called Mu TNC; mouse TNC rCd4-His-FBG; not shown: 6His tag
T1 sequence (chain (part 1 of 2)): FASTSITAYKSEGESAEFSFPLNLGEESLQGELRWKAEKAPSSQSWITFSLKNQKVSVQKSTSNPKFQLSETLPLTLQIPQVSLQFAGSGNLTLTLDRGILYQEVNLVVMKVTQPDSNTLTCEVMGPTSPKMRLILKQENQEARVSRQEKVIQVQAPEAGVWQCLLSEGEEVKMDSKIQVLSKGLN
T1 sequence (chain (part 2 of 2)): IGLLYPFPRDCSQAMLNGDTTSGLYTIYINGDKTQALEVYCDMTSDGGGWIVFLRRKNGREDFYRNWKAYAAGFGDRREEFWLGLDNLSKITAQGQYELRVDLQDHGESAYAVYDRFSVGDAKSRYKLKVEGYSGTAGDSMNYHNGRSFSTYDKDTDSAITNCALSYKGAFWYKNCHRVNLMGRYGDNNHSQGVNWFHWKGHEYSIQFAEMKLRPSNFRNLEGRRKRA

T2: human tenascin-C rCd4-His-FBG (rat; human, UniProt P05540 207-392, limits assumed)
T2 construct: domain: domains 3 and 4; C-terminal FBG fusion; biotinylated in the ELISA and HTRF screens; also called Hu TNC; human TNC rCd4-His-FBG; not shown: 6His tag
T2 sequence (chain (part 1 of 2)): T1 sequence (chain (part 1 of 2))
T2 sequence (chain (part 2 of 2)): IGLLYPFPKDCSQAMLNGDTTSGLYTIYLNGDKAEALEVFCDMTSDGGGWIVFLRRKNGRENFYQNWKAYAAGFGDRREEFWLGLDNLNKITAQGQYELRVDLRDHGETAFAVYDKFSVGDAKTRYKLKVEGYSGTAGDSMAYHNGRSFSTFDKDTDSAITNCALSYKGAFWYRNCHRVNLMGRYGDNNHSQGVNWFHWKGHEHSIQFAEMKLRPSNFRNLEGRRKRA

B1: 165_13_A4 human IgG4 (antibody, V domains shown)
VH: QVQLVESGGGLVQPGRSLRLSCAASGFTFDDYAMHWVRQAPGKGLEWVSGISGSGGSTYYADSVKGRFTISRDNAKNSLYLQMNSLRAEDTALYYCAKDKYPVLDTFDIWGQGTMVTVSS
VL: DIQMTQSPASLPTPVGDRVTITCRASQYIQGFLNWYQQKPGKAPKLLIYDASNLETGVPSRFSGSGSGTDFTLTISSLQPEDFATYYCQQSYSTPQTFGQGTKVDIKR
notes: human IgG4 with hinge S241P
B2: 180_11_F5 human IgG4 (antibody, V domains shown)
VH: B1 VH with D99V, K100M, Y101R, P102T, V103G
VL: B1 VL
notes: human IgG4 with hinge S241P; also called Antibody 180 11 F5 (derived from B12)
B3: 165_13_B3 human IgG4 (antibody, V domains shown)
VH: B1 VH with D99A, K100L, Y101A, P102R, V103G, L104H
VL: B1 VL
notes: human IgG4 with hinge S241P
B4: 161_01_C11 human IgG4 (antibody, V domains shown)
VH: EVRLVQSGAEVKKPGASVKVSCKVSGYTLTELSMHWVRQAPGKGLEWMGGFDPEDGETIYAQKFQGRVTMTEDTSTDTAYMELSSLRSEDTAVYYCATAQKEWLPDVTWGQGTLVTVSS
VL: B1 VL with P14S, K45R, D50A, N53T, E55Q, T56D, S67Y, Q96W, D105E
notes: human IgG4 with hinge S241P; also called Antibody 161 01 C11 (derived from 2A5)
B5: 163_02_A12 human IgG4 (antibody, V domains shown)
VH: B4 VH with W103T, L104Y, P105A, D106L, V107T, T108Y
VL: DIQMTQSPASLPTSVGDRVTITCRASQYIQGFLNWYQQKPGKAPRLLIYAASTLQDGVPSRFSGSGYGTDFTLTISSLQPEDFATYYCLHHYREPWTFGQGTKVEIKR
notes: human IgG4 with hinge S241P; also called Antibody 163 02 A12 (derived from 2A5)
B6: 162_02_F4 human IgG4 (antibody, V domains shown)
VH: B4 VH with W103T, L104Y, P105A, D106L, V107T, T108Y
VL: B5 VL with L89M, E94S
notes: human IgG4 with hinge S241P; also called Antibody 162 02 F4 (derived from 2A5)
B7: 160_01_F1 human IgG4 (antibody, V domains shown)
VH: B4 VH with K101S, E102P, L104S, P105G, D106M, V107T, T108Y
VL: B5 VL with L89Q, H90Q, H91S, R93S, E94T
notes: human IgG4 with hinge S241P; also called Antibody 160 01 F1 (derived from 2A5)
B8: 160_01_D6 human IgG4 (antibody, V domains shown)
VH: B4 VH with K101A, E102D, W103P, L104H, P105L, D106F, V107T, T108Y
VL: B5 VL with L89Q, H90Q, H91S, R93S, E94T
notes: human IgG4 with hinge S241P; also called Antibody 160 01 D6 (derived from 2A5)
B9: 162_02_C1 human IgG4 (antibody, V domains shown)
VH: B4 VH with W103T, L104Y, P105A, D106L, V107T, T108Y
VL: B5 VL with E94A
notes: human IgG4 with hinge S241P; also called Antibody 162 02 C1 (derived from 2A5)
B10: 160_01_E3 human IgG4 (antibody, V domains shown)
VH: B4 VH with A99Q, Q100R, K101Y, E102V, L104E, P105A, D106L, V107T, T108Y
VL: B5 VL with L89Q, H90Q, H91S, R93S, E94T
notes: human IgG4 with hinge S241P; also called Antibody 160 01 E3 (derived from 2A5)
B11: 163_02_D11 human IgG4 (antibody, V domains shown)
VH: B4 VH with W103T, L104Y, P105A, D106L, V107T, T108Y
VL: B5 VL with R93K, E94S
notes: human IgG4 with hinge S241P; also called Antibody 163 02 D11 (derived from 2A5)
B12: 162_02_C2 human IgG4 (antibody, V domains shown)
VH: B4 VH with W103T, L104Y, P105A, D106L, V107T, T108Y
VL: B5 VL with L89M, E94A
notes: human IgG4 with hinge S241P; also called Antibody 162 02 C2 (derived from 2A5)
B13: 160_01_H4 human IgG4 (antibody, V domains shown)
VH: B4 VH with A99G, Q100R, K101F, E102V, L104E, P105A, D106L, V107T, T108Y
VL: B5 VL with L89Q, H90Q, H91S, R93S, E94T
notes: human IgG4 with hinge S241P; also called Antibody 160 01 H4 (derived from 2A5)
B14: 165_13_E1 human IgG4 (antibody, V domains shown)
VH: B1 VH with K100I, Y101S, P102A, L104M, T106V, F107P, D108Q, I109T
VL: B1 VL
notes: human IgG4 with hinge S241P
B15: 162_02_F3 scFv (scFv, V domains shown, not shown: small tags and cut ends)
VH: B4 VH with W103T, L104Y, P105A, D106L, V107T, T108Y
VL: DIQMTQSPASLPTSVGDRVTITCRASQYIQGFLNWYQQKPGKAPRLLIYAASTLQDGVPSRFSGSGYGTDFTLTISSLQPEDFATYYCQNQYRGPWTFGQGTKVEIK
notes: E. coli supernatant scFv
B16: 160_01_A4 scFv (scFv, V domains shown, not shown: small tags and cut ends)
VH: B4 VH with W103T, P105G, D106N, V107A, T108I
VL: B15 VL with N90Q, Q91S, R93S, G94T
notes: E. coli supernatant scFv
B17: 160_01_F1 scFv (scFv, V domains shown, not shown: small tags and cut ends)
VH: B4 VH with K101S, E102P, L104S, P105G, D106M, V107T, T108Y
VL: B15 VL with N90Q, Q91S, R93S, G94T
notes: E. coli supernatant scFv
B18: 161_01_A12 scFv (scFv, V domains shown, not shown: small tags and cut ends)
VH: B4 VH with K101P, E102T, W103A, P105A, D106N, V107T, T108Y
VL: B15 VL with N90Q, Q91S, R93S, G94T
notes: E. coli supernatant scFv
B19: 160_01_H4 scFv (scFv, V domains shown, not shown: small tags and cut ends)
VH: B4 VH with A99G, Q100R, K101F, E102V, L104E, P105A, D106L, V107T, T108Y
VL: B15 VL with N90Q, Q91S, R93S, G94T
notes: E. coli supernatant scFv
B20: 160_01_G2 scFv (scFv, V domains shown, not shown: small tags and cut ends)
VH: B4 VH with A99Y, Q100T, K101L, E102D, W103N, L104M, P105A, D106L, V107T, T108Y
VL: B15 VL with N90Q, Q91S, R93S, G94T
notes: E. coli supernatant scFv
B21: 161_01_C09 scFv (scFv, V domains shown, not shown: small tags and cut ends)
VH: B4 VH with K101L, E102P, W103Y, P105A, D106Q, V107T, T108Y
VL: B15 VL with N90Q, Q91S, R93S, G94T
notes: E. coli supernatant scFv
B22: 161_01_C11 scFv (scFv, V domains shown, not shown: small tags and cut ends)
VH: B4 VH
VL: B15 VL with N90Q, Q91S, R93S, G94T
notes: E. coli supernatant scFv

Key:
[1] = biological target: T1, mouse tenascin-C rCd4-His-FBG; assay: SPR off-rate screen, captured IgG4 supernatant, 25 C
Description: (§1) The 31 scFv of interest were sub-cloned into a human IgG4 expression vector for generation of antibodies as human IgG4 with a hinge-stabilising mutation (S241P; Angal et al, 1993). […] Briefly, surface plasmon resonance (SPR) experiments were performed using a BIAcore T100 instrument and followed the protocol according to the Human antibody capture kit protocol (GE, BR-1008-39). For off-rate screening, 10,000 response units (RU) of anti-human Fc IgG (GE, BR-1008-39) was immobilised on flow-cells (FC1 and FC2) of a Series 5 CM5 dextran sensor chip (BR-1005-30) using EDC/NHS cross-linking chemistry according to the amine coupling kit protocol (GE, BR-1000-50). Culture supernatants containing expressed IgG4 were diluted 1:2 with 2×PBS-T and injected into FC2 (flowrate 5 μl/min, 60 s contact time) to enable antibody capture at 25° C. […] A fixed concentration of antigen (15 nM of human and mouse TNC rCd4-His-FBG and 100 nM of human TNR rCd4-His-FBG) was injected with a flow-path via FC 1 (reference flow cell) and FC 2 (antibody capture flow cell), with a flow rate of 30 μl/min, and the association and dissociation phases measured over 1 and 5 min time periods, respectively. Regeneration of the binding surface employed 3M MgCl₂ with 30 s contact time. Off rates were determined by reference cell subtraction and fitting the sensogram experimental data assuming a 1:1 interaction using BIAevaluation software (GE, BR-1005-97).

[2] = biological target: T2, human tenascin-C rCd4-His-FBG; assay: as above
Description: as §1

[3] = biological target: T1, mouse tenascin-C rCd4-His-FBG; assay: anti-FLAG capture ELISA, scFv supernatant
[4] = biological target: T2, human tenascin-C rCd4-His-FBG; assay: HTRF competition; competitor d2-labelled B12 IgG
Description: All samples and reagents were prepared in assay buffer (50 mM NaPO₄, 0.1% BSA, 0.4 M KF, pH 7.0) at 4× the stated concentration. 5 μl of each reagent was subsequently added to low volume 384-well assay plates (Greiner, 784075) to give a final reaction volume of 20 μl. IgG antibodies were labelled using the d2 labelling kit (CisBio, 62D2DPEA) as directed by the manufacturer. Streptavidin europium cryptate (CisBio, 610SAKLA, Lot#25C) was used at a final concentration of 1.8 ng active moiety (SA) per 20 μl reaction as recommended by the manufacturer. Biotinylated rCd4-His-FBG was prepared using EZ-link Sulfo-NHS-LC-Biotin reagent (Thermo Scientific, 21327) the extent of biotinylation was quantified using biotinylation fluorescence quantitation kit (Thermo Scientific, 46610). Where appropriate, supernatants containing scFv (prepared as described above for ELISA assays) were added to the 384-well assay plate at a final dilution of 1/20 (i.e. 1/5 dilution in assay buffer followed by addition of 5 μl diluted sample to the 20 μl FRET assay). […] Samples were incubated for approximately 1 h at room temperature and the FRET signal was determined using a BMG Pherastar instrument: excitation=320 nm; emission=620 nm and 665 nm; integration start time=60 μs; integration time=500 μs; 100 flashes per well. For competition assays containing culture supernatant, biotinylated rCd4-His-FBG antigen was pre-incubated with streptavidin europium cryptate for 45 min prior to addition of reagents to the assay plate. All FRET signals are presented as ΔR, where R=(E665/E620×104) and ΔR=(Rsample−Rbackground fluorescence).

| Binder | koff [1] | koff [2] | fold improvement in binding over parent [3] | % inhibition of FRET signal [4] |
| --- | --- | --- | --- | --- |
| B1 | 0.00797 s⁻¹ | 0.000872 s⁻¹ | – | – |
| B2 | 1 s⁻¹ | 2.6e-05 s⁻¹ | – | – |
| B3 | 0.03 s⁻¹ | 1.4e-06 s⁻¹ | – | – |
| B4 | – | 2.2e-07 s⁻¹ | – | – |
| B5 | 0.00094 s⁻¹ | 3.2e-07 s⁻¹ | – | – |
| B6 | 0.001 s⁻¹ | 5.9e-07 s⁻¹ | – | – |
| B7 | – | 4e-06 s⁻¹ | – | – |
| B8 | 0.0559 s⁻¹ | 1.05e-05 s⁻¹ | – | – |
| B9 | 0.0016 s⁻¹ | < 1e-05 s⁻¹ | – | – |
| B10 | 0.0559 s⁻¹ | – | – | – |
| B11 | 0.00098 s⁻¹ | 3.2e-07 s⁻¹ | – | – |
| B12 | 0.0017 s⁻¹ | 1.15e-05 s⁻¹ | – | – |
| B13 | 0.0171 s⁻¹ | 1.6e-05 s⁻¹ | – | – |
| B14 | 0.0577 s⁻¹ | 1.4e-06 s⁻¹ | – | – |
| B15 | – | – | ≥ 10 fold | ≥ 83% |
| B16 | – | – | ≥ 10 fold | ≥ 90% |
| B17 | – | – | ≥ 10 fold | ≥ 90% |
| B18 | – | – | ≥ 10 fold | ≥ 90% |
| B19 | – | – | ≥ 10 fold | ≥ 90% |
| B20 | – | – | ≥ 10 fold | ≥ 90% |
| B21 | – | – | ≥ 10 fold | ≥ 90% |
| B22 | – | – | ≥ 10 fold | ≥ 90% |

— US20170306005A1 (NASCIENT, published 2017)
